Assay results: the RNAGym collection of RNA variant scans (doi:10.7554/elife.90254)

B1: LINE1-full (parent)
chain: UACGUAGGUGGUUUUCCCCUGAUAGUGCUAAGGGGGCCUGGAAGUUUGGACUGGGCAGAGCUCAACACAGCGUGGCAAAGUGGCUGUGGCUAGACUGCCUCUCUGGAUUCCUCGUCACUCAGCAGGGCAUCUCUGAGAGAAAUGCC

Variants of: B1
Assay: self-cleavage, relative activity (ratio to wild type); higher = more cleavage; in vitro, sequencing; the parent is a self-cleaving ribozyme

| Variant | self-cleavage |
| --- | --- |
| UACGUAGGUGGUUUUCCCCUGAUAGUGCUAAGGGGGCCUGGAAGUUUGGACCGGGCAGAGCUCAACACAGCGUGGCAAAGUGGCUGUGGCUAGACUGCCUCUCUGUAUUCCUCGUCACUCAGCAGGGCAUCUCUGAGAGAAAUGCC [U52C G106U] | 0.8 |
| UACGUAGGUGGUUUUCCCCUGAUAGUGCUAAGGGGGCCUGGAAGUUUGGACCGGGCAGAGCUCAACACAGCGUGGCAAAGUGGCUGUGGCUAGACUGCCUCUCUGGAUUCCUCGUCACUCAGCAUGGCAUCUCUGAGAGAAAUGCC [U52C G125U] | 1.15 |
| UACGUAGGUGGUUUUCCCCUGAUAGUGCUAAGGGGGCCUGGAAGUUUGGACCGGGCAGAGCUCAACACAGCGUGGCAAAGUGGCUGUGGCUAGACUGCCUCUCUGGAUUCCUCGUCACUCAGCAGAGCAUCUCUGAGAGAAAUGCC [U52C G126A] | 1.18 |
| UACGUAGGUGGUUUUCCCCUGAUAGUGCUAAGGGGGCCUGGAAGUUUGGACCGGGCAGAGCUCAACACAGCGUGGCAAAGUGGCUGUGGCUAGACUGCCUCUCUGGAUUCCUCGUCACUCAGCAGUGCAUCUCUGAGAGAAAUGCC [U52C G126U] | 1.31 |
| UACGUAGGUGGUUUUCCCCUGAUAGUGCUAAGGGGGCCUGGAAGUUUGGACCGGGCAGAGCUCAACACAGCGUGGCAAAGUGGCUGUGGCUAGACUGCCUCUCUGGAUUCCUCGUCACUCAGCAGGACAUCUCUGAGAGAAAUGCC [U52C G127A] | 0.93 |
| UACGUAGGUGGUUUUCCCCUGAUAGUGCUAAGGGGGCCUGGAAGUUUGGACCGGGCAGAGCUCAACACAGCGUGGCAAAGUGGCUGUGGCUAGACUGCCUCUCUGGAUUCCUCGUCACUCAGCAGGGCAUCUCUGAAAGAAAUGCC [U52C G137A] | 0.89 |
| UACGUAGGUGGUUUUCCCCUGAUAGUGCUAAGGGGGCCUGGAAGUUUGGACCGGGCAGAGCUCAACACAGCGUGGCAAAGUGGCUGUGGCUAGACUGCCUCUCUGGAUUCCUCGUCACUCAGCAGGGCAUCUCUGAGAGAAAUACC [U52C G144A] | 1.73 |
| UACGUAGGUGGUUUUCCCCUGAUAGUGCUAAGGGGGCCUGGAAGUUUGGACCGGGCAGAGCGCAACACAGCGUGGCAAAGUGGCUGUGGCUAGACUGCCUCUCUGGAUUCCUCGUCACUCAGCAGGGCAUCUCUGAGAGAAAUGCC [U52C U62G] | 0 |
| UACGUAGGUGGUUUUCCCCUGAUAGUGCUAAGGGGGCCUGGAAGUUUGGACCGGGCAGAGCUCAACACAGCGAGGCAAAGUGGCUGUGGCUAGACUGCCUCUCUGGAUUCCUCGUCACUCAGCAGGGCAUCUCUGAGAGAAAUGCC [U52C U73A] | 1.21 |
| UACGUAGGUGGUUUUCCCCUGAUAGUGCUAAGGGGGCCUGGAAGUUUGGACCGGGCAGAGCUCAACACAGCGCGGCAAAGUGGCUGUGGCUAGACUGCCUCUCUGGAUUCCUCGUCACUCAGCAGGGCAUCUCUGAGAGAAAUGCC [U52C U73C] | 0.54 |
| UACGUAGGUGGUUUUCCCCUGAUAGUGCUAAGGGGGCCUGGAAGUUUGGACCGGGCAGAGCUCAACACAGCGUGGCAAAGUGGCUGAGGCUAGACUGCCUCUCUGGAUUCCUCGUCACUCAGCAGGGCAUCUCUGAGAGAAAUGCC [U52C U87A] | 0.08 |
| UACGUAGGUGGUUUUCCCCUGAUAGUGCUAAGGGGGCCUGGAAGUUUGGACCGGGCAGAGCUCAACACAGCGUGGCAAAGUGGCUGGGGCUAGACUGCCUCUCUGGAUUCCUCGUCACUCAGCAGGGCAUCUCUGAGAGAAAUGCC [U52C U87G] | 0 |
| UACGUAGGUGGUUUUCCCCUGAUAGUGCUAAGGGGGCCUGGAAGUUUGGACCGGGCAGAGCUCAACACAGCGUGGCAAAGUGGCUGUGGCGAGACUGCCUCUCUGGAUUCCUCGUCACUCAGCAGGGCAUCUCUGAGAGAAAUGCC [U52C U91G] | 0.17 |
| UACGUAGGUGGUUUUCCCCUGAUAGUGCUAAGGGGGCCUGGAAGUUUGGACCGGGCAGAGCUCAACACAGCGUGGCAAAGUGGCUGUGGCUAGACCGCCUCUCUGGAUUCCUCGUCACUCAGCAGGGCAUCUCUGAGAGAAAUGCC [U52C U96C] | 0.02 |
| UACGUAGGUGGUUUUCCCCUGAUAGUGCUAAGGGGGCCUGGAAGUUUGGACCGGGCAGAGCUCAACACAGCGUGGCAAAGUGGCUGUGGCUAGACUGCCACUCUGGAUUCCUCGUCACUCAGCAGGGCAUCUCUGAGAGAAAUGCC [U52C U100A] | 0.63 |
| UACGUAGGUGGUUUUCCCCUGAUAGUGCUAAGGGGGCCUGGAAGUUUGGACCGGGCAGAGCUCAACACAGCGUGGCAAAGUGGCUGUGGCUAGACUGCCCCUCUGGAUUCCUCGUCACUCAGCAGGGCAUCUCUGAGAGAAAUGCC [U52C U100C] | 2.25 |
| UACGUAGGUGGUUUUCCCCUGAUAGUGCUAAGGGGGCCUGGAAGUUUGGACCGGGCAGAGCUCAACACAGCGUGGCAAAGUGGCUGUGGCUAGACUGCCUCUCUGGACUCCUCGUCACUCAGCAGGGCAUCUCUGAGAGAAAUGCC [U52C U108C] | 1.68 |
| UACGUAGGUGGUUUUCCCCUGAUAGUGCUAAGGGGGCCUGGAAGUUUGGACCGGGCAGAGCUCAACACAGCGUGGCAAAGUGGCUGUGGCUAGACUGCCUCUCUGGAUUCCACGUCACUCAGCAGGGCAUCUCUGAGAGAAAUGCC [U52C U112A] | 0.99 |
| UACGUAGGUGGUUUUCCCCUGAUAGUGCUAAGGGGGCCUGGAAGUUUGGACCGGGCAGAGCUCAACACAGCGUGGCAAAGUGGCUGUGGCUAGACUGCCUCUCUGGAUUCCUCGCCACUCAGCAGGGCAUCUCUGAGAGAAAUGCC [U52C U115C] | 1.64 |
| UACGUAGGUGGUUUUCCCCUGAUAGUGCUAAGGGGGCCUGGAAGUUUGGACCGGGCAGAGCUCAACACAGCGUGGCAAAGUGGCUGUGGCUAGACUGCCUCUCUGGAUUCCUCGUCACCCAGCAGGGCAUCUCUGAGAGAAAUGCC [U52C U119C] | 1.86 |

| Variant | self-cleavage |
| --- | --- |
| UACGUAGGUGGUUUUCCCCUGAUAGUGCUAAGGGGGCCUGGAAGUUUGGACCGGGCAGAGCUCAACACAGCGUGGCAAAGUGGCUGUGGCUAGACUGCCUCUCUGGAUUCCUCGUCACUCAGCAGGGCAUCACUGAGAGAAAUGCC [U52C U132A] | 1.88 |
| UACGUAGGUGGUUUUCCCCUGAUAGUGCUAAGGGGGCCUGGAAGUUUGGACCGGGCAGAGCUCAACACAGCGUGGCAAAGUGGCUGUGGCUAGACUGCCUCUCUGGAUUCCUCGUCACUCAGCAGGGCAUCGCUGAGAGAAAUGCC [U52C U132G] | 1.93 |
| UACGUAGGUGGUUUUCCCCUGAUAGUGCUAAGGGGGCCUGGAAGUUUGGACCGGGCAGAGCUCAACACAGCGUGGCAAAGUGGCUGUGGCUAGACUGCCUCUCUGGAUUCCUCGUCACUCAGCAGGGCAUCUCAGAGAGAAAUGCC [U52C U134A] | 1.07 |
| UACGUAGGUGGUUUUCCCCUGAUAGUGCUAAGGGGGCCUGGAAGUUUGGACCGGGCAGAGCUCAACACAGCGUGGCAAAGUGGCUGUGGCUAGACUGCCUCUCUGGAUUCCUCGUCACUCAGCAGGGCAUCUCUGAGAGAAACGCC [U52C U143C] | 1.67 |
| UACGUAGGUGGUUUUCCCCUGAUAGUGCUAAGGGGGCCUGGAAGUUUGGACCGGGCAGAGCUCAACACAGCGUGGCAAAGUGGCUGUGGCUAGACUGCCUCUCUGGAUUCCUCGUCACUCAGCAGGGCAUCUCUGAGAGAAAGGCC [U52C U143G] | 1.6 |
| UACGUAGGUGGUUUUCCCCUGAUAGUGCUAAGGGGGCCUGGAAGUUUGGACGGGGCAGAGCUCGACACAGCGUGGCAAAGUGGCUGUGGCUAGACUGCCUCUCUGGAUUCCUCGUCACUCAGCAGGGCAUCUCUGAGAGAAAUGCC [U52G A64G] | 0.32 |
| UACGUAGGUGGUUUUCCCCUGAUAGUGCUAAGGGGGCCUGGAAGUUUGGACGGGGCAGAGCUCUACACAGCGUGGCAAAGUGGCUGUGGCUAGACUGCCUCUCUGGAUUCCUCGUCACUCAGCAGGGCAUCUCUGAGAGAAAUGCC [U52G A64U] | 0.7 |
| UACGUAGGUGGUUUUCCCCUGAUAGUGCUAAGGGGGCCUGGAAGUUUGGACGGGGCAGAGCUCAACGCAGCGUGGCAAAGUGGCUGUGGCUAGACUGCCUCUCUGGAUUCCUCGUCACUCAGCAGGGCAUCUCUGAGAGAAAUGCC [U52G A67G] | 0.64 |
| UACGUAGGUGGUUUUCCCCUGAUAGUGCUAAGGGGGCCUGGAAGUUUGGACGGGGCAGAGCUCAACACAGCGUGGCAAAGUGGCUGUGGCUAGACUGCCUCUCUGGAUUCCUCGUCACUCAGCGGGGCAUCUCUGAGAGAAAUGCC [U52G A124G] | 1.57 |
| UACGUAGGUGGUUUUCCCCUGAUAGUGCUAAGGGGGCCUGGAAGUUUGGACGGGGCAGAGCUCAACACAGCGUGGCAAAGUGGCUGUGGCUAGACUGCCUCUCUGGAUUCCUCGUCACUCAGCAGGGCAUCUCUGAGAGGAAUGCC [U52G A140G] | 1.81 |
| UACGUAGGUGGUUUUCCCCUGAUAGUGCUAAGGGGGCCUGGAAGUUUGGACGGGGCAGAGCUCAACACAGCGUGGCAAAGUGGCUGUGGCUAGACUGCCUCUCUGGAUUCCUCGUCACUCAGCAGGGCAUCUCUGAGAGAGAUGCC [U52G A141G] | 1.72 |
| UACGUAGGUGGUUUUCCCCUGAUAGUGCUAAGGGGGCCUGGAAGUUUGGACGGGGCAGAGCUCAACACAGCGUGGCAAAGUGGCUGUGGCUAGACUGCCUCUCUGGAUUCCUCGUCACUCAGCAGGGCAUCUCUGAGAGAAGUGCC [U52G A142G] | 0.51 |
| UACGUAGGUGGUUUUCCCCUGAUAGUGCUAAGGGGGCCUGGAAGUUUGGACGGGGCAGAGCUCAACACAGCGUGGCAAAGUGGCUGUGGCUAGACUGCCUUUCUGGAUUCCUCGUCACUCAGCAGGGCAUCUCUGAGAGAAAUGCC [U52G C101U] | 1.55 |
| UACGUAGGUGGUUUUCCCCUGAUAGUGCUAAGGGGGCCUGGAAGUUUGGACGGGGCAGAGCUCAACACAGCGUGGCAAAGUGGCUGUGGCUAGACUGCCUCUCUGGAUUGCUCGUCACUCAGCAGGGCAUCUCUGAGAGAAAUGCC [U52G C110G] | 1.31 |
| UACGUAGGUGGUUUUCCCCUGAUAGUGCUAAGGGGGCCUGGAAGUUUGGACGGGGCAAAGCUCAACACAGCGUGGCAAAGUGGCUGUGGCUAGACUGCCUCUCUGGAUUCCUCGUCACUCAGCAGGGCAUCUCUGAGAGAAAUGCC [U52G G58A] | 0.09 |
| UACGUAGGUGGUUUUCCCCUGAUAGUGCUAAGGGGGCCUGGAAGUUUGGACGGGGCAGAGCUCAACACAGCAUGGCAAAGUGGCUGUGGCUAGACUGCCUCUCUGGAUUCCUCGUCACUCAGCAGGGCAUCUCUGAGAGAAAUGCC [U52G G72A] | 0 |
| UACGUAGGUGGUUUUCCCCUGAUAGUGCUAAGGGGGCCUGGAAGUUUGGACGGGGCAGAGCCCAACACAGCGUGGCAAAGUGGCUGUGGCUAGACUGCCUCUCUGGAUUCCUCGUCACUCAGCAGGGCAUCUCUGAGAGAAAUGCC [U52G U62C] | 0.09 |
| UACGUAGGUGGUUUUCCCCUGAUAGUGCUAAGGGGGCCUGGAAGUUUGGACGGGGCAGAGCUCAACACAGCGUGGCAAAGUGGCAGUGGCUAGACUGCCUCUCUGGAUUCCUCGUCACUCAGCAGGGCAUCUCUGAGAGAAAUGCC [U52G U85A] | 0.17 |
| UACGUAGGUGGUUUUCCCCUGAUAGUGCUAAGGGGGCCUGGAAGUUUGGACGGGGCAGAGCUCAACACAGCGUGGCAAAGUGGCUGCGGCUAGACUGCCUCUCUGGAUUCCUCGUCACUCAGCAGGGCAUCUCUGAGAGAAAUGCC [U52G U87C] | 0.69 |
